The test system of data set [1] is VchCAST RNA-guided transposition machinery (E. coli BL21(DE3) host, lacZ target). The data set can be described thus: relative integration efficiency (T-LR orientation) vs wild-type transposon end (log2 (normalized fold change)); transposon end mutated: left end; higher = more efficient transposition. On the procedure: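 Pooled, barcoded VchCAST (Tn6677) mini-transposon donor libraries; each variable transposon-end sequence sits in a fixed pDonor mini-transposon context (10-bp barcode and cargo not included). Left- or right-end libraries were co-transformed with pEffector (TniQ-Cascade, TnsABC, lacZ crRNA, T7, 0.1 mM IPTG) into E. coli BL21(DE3) and grown 18 h at 37 C. T-LR and T-RL junction amplicons were sequenced; output/input barcode fold change was normalised to the mean of four wild-type barcodes and log2-transformed. Two biological replicates; zero-count/undetected variants carry floor values (-10 / -15), censored here. Barcode uncoupling by PCR recombination adds noise.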

The test system is the same in data set [2]. The data set can be described thus: relative integration efficiency (T-RL orientation) vs wild-type transposon end (log2 (normalized fold change)); transposon end mutated: left end; higher = more efficient transposition. The method in brief:
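Barcoded pools of 1549 left-end or 1849 right-end transposon variants were cloned into a pUC57 mini-transposon donor. Each pool was co-transformed with a T7-driven effector plasmid (CRISPR array, tniQ-cas8-cas7-cas6, tnsA-tnsB-tnsC) into E. coli BL21(DE3) and plated with 0.1 mM IPTG at 37°C for 18 h. Input plasmids and genomic integration junctions were PCR-amplified and Illumina-sequenced, with two biological output replicates and four wild-type barcodes as reference. Relative integration efficiency is output/input barcode abundance fold change, normalised to wild-type barcodes and log-transformed.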

± gives the standard deviation of the averaged measurements.

Consider “AATGTTGTTGAAACAACCATAAAGTGATAACAACGAATCAATTAAAATCATAGGCTTAATCGAAAAACAACCATATCTTGATATCGCACAAAACAACCATAAGTTGATATTTTTGTGAATCGAGTATTTCAGCAAAACTACTGCAGTAAGAA”, for which the “relative integration efficiency (log2)” value is -0.526 ± 0.33 in data set [1] and -0.51 ± 0.3 in data set [2]. Consider “AATGTTGTTGAAACAACCATAAAGTGATAACAACGAATCAATTAAAATCATAGGCTTAATCGAAAAACAACCATATCTTGATATCGCATAAAACAACCATAAGTTGATATTTTGGTGAAAAGGATATTCCAACCTTCATAGTTTAGTAAGAA”, for which the entries for the “relative integration efficiency (log2)” value in data set [1] and in data set [2] were 0.198 ± 0.12 and -0.201 ± 0.34, respectively. As to “AATGTTGTTGAAACAACCATAAAGTGATAACAACGAATCAATTAAAATCATAGGCTTAATCGAAAAACAACCATATCTTGATATCGCATAAAACAACCATAAGTTGATATTTTGGTGAAACGAGTATTTCAGCAAAACTACTGCAGTAAGAA”, the figures for the “relative integration efficiency (log2)” value in data set [1] and in data set [2] were -0.44 ± 0.53 and 0.0434 ± 0.29, respectively. In the same order, the values of “AATGTTGTTGAAACAACCATAAAGTGATAACAACGAATCAATTAAAATCATAGGCTTAATCGAAAAACAACCATATCTTGATATCGCATAAAACAACCATAAGTTGATATTTTTGTGAATCGAGTATTTCAGCAAAACTACTGCAGTAAGAA” are -0.327 ± 0.31 and -0.424 ± 0.24. On the same counts, the results for “AATGTTGTTGACAACCATAAAGTGATATTTAATAATTATTTATAATCAGCAACTTAACCACAAAACAACCATATATTGATATCTCACAAAACAACCATAAGTTGATATTTTTGTGAATCGAGTATTTCAGCAAAACTACTGCAGTAAGAAAG” are -5.1 ± 0.69 and -1.33 ± 0.66. On the same counts, the results for “AATGTTGTTGATACAACCATAAAATGATAATTACACCCATAAATTGATAATTATCACACCCATAAATTGATATTGCTGTGAATCGAGTATTTCAGCAAAACTACTGCAGTAAGAAAGTTACTTCGTGGTATGGGAGGATCAAGGAGCCAATA” are 3.47 ± 0.79 and -2.21 ± 0.71. “AATGTTGTTGATACAACCATAAAGTGATATTTACAACCATATATTGATATCTCTCACAACCATAAGTTGATATTTTTGTGAATCGAGTATTTCAGCAAAACTACTGCAGTAAGAAAGTTACTTCGTGGTATGGGAGGATCAAGGAGCCAATA”: the entries for the “relative integration efficiency (log2)” value in data set [1] and in data set [2] were 2.35 ± 0.84 and -3.51 ± 1, respectively. With “AATGTTGTTGATCAACCATAAAGTGATATTTAATAATTATTTATAATCAGCAACTTAACCACAAAACAACCATATATTGATATCTCACAAAACAACCATAAGTTGATATTTTTGTGAATCGAGTATTTCAGCAAAACTACTGCAGTAAGAAA”, the “relative integration efficiency (log2)” value in data set [1] was less than -10; in data set [2], -6.905 ± 0.028. Regarding “AATGTTGTTGATGACCAACGCCCTGTCGCGGGCCGCCGGCGGGCGCCGACTACCAGGCCAACACCCCACCAACGCGCGGTCGCGAGACACCCCACCAACGCCTGGTCGCGGGGGTGTCCGATCTGATTTCAGCAAAACTACTGCAGTAAGAA”, in data set [1], the “relative integration efficiency (log2)” value was less than -10. Still for that read-out and setting: then “AATGTTGTTGATGACCAACGCCTGGTCGCGGGGATAATTATTTATAATCAGCAACTTAACCACAAAACAACCATATATTGATATCTCACAAAAACCAACGCCCTGTCGCGGGCTGTGAATCGAGTATTTCAGCAAAACTACTGCAGTAAGAA”, with less than -10. Regarding “AATGTTGTTGATGCAACACGCCCTGTCGCGGGCCGCCGGCGGGCGCCGACTACCAGGCCAACACCCCACCAACGCGCGGTCGCGAGACACCCCACCAACGCCTGGTCGCGGGGGTGTCCGATCTGATTTCAGCAAAACTACTGCAGTAAGAA”, the “relative integration efficiency (log2)” value in data set [1] and in data set [2] was less than -10 throughout.

Turning to “AATGTTGTTGATGCAACCAGCCCTTGATATTTAATAATTATTTATAATCAGCAACTTAACCACAAAACAACCAGCGCGTGATATCTCACAAAACAACCAGCCTGTGATATTTTTGTGAATCGAGTATTTCAGCAAAACTACTGCAGTAAGAA”, the “relative integration efficiency (log2)” value in data set [1] is less than -10. Regarding “AATGTTGTTGATGCAACCATAAAGTGATATTTAATAATTATTCAACCATATATTGATATCTCACAAAACAACCATAAGTTGATATTTTTGTGAATCGAGTATTTCAGCAAAACTACTGCAGTAAGAAAGTTACTTCGTGGTATGGGAGGATC”, in data set [1], the “relative integration efficiency (log2)” value is -5.27 ± 0.11.

On to “AATGTTGTTGATGCAACCATAAAGTGATATTTAATAATTATTTATAATCAGCACAACCATATATTGATATCTCACAAAACAACCATAAGTTGATATTTTTGTGAATCGAGTATTTCAGCAAAACTACTGCAGTAAGAAAGTTACTTCGTGGT”, for which the “relative integration efficiency (log2)” value in data set [1] is -4.94 ± 0.63. As for “AATGTTGTTGATGCAACCATAAAGTGATATTTATTGACAGCTAGCTCAGTCCTAGGTATAATGCTAGCAACCATATATTGATATCTCACAAAACAACCATAAGTTGATATTTTTGTGAATCGAGTATTTCAGCAAAACTACTGCAGTAAGAA”, the “relative integration efficiency (log2)” value in data set [2] is -8.14 ± 0.72.

Consider “AATGTTGTTGATGCAACCATAAAGTGATATTTATTGACGGCTAGCTCAGTCCTAGGTATAGTGCTAGCAACCATATATTGATATCTCACAAAACAACCATAAGTTGATATTTTTGTGAATCGAGTATTTCAGCAAAACTACTGCAGTAAGAA”, for which the “relative integration efficiency (log2)” value in data set [2] was -6.66 ± 0.33. For the sequence “AATGTTGTTGATGCAACCATAAAGTGATATTTGCTAGCATTATACCTAGGACTGAGCTAGCTGTCAACAACCATATATTGATATCTCACAAAACAACCATAAGTTGATATTTTTGTGAATCGAGTATTTCAGCAAAACTACTGCAGTAAGAA”, the “relative integration efficiency (log2)” value in data set [1] was less than -10.

For “AATGTTGTTGATGCAACCATAAAGTGCGCGGGCATAATTATTTATAATCAGCAACTTAACCACAAAACAACCATATATTGCGCGAGAACAAAACAACCATAAGTTGCGCGGGGTGTGAATCGAGTATTTCAGCAAAACTACTGCAGTAAGAA”, in data set [2], the “relative integration efficiency (log2)” value is -7.87 ± 2.2. With “AATGTTGTTGATGCAACCATAAAGTGCGCGGGCCGCCGGCGGGCGCCGACTACCAGGCCAACACCCCACCAACGCGCGGTCGCGAGACACCCCACCAACGCCTGGTCGCGGGGGTGTCCGATCTGATTTCAGCAAAACTACTGCAGTAAGAA”, the “relative integration efficiency (log2)” value in data set [1] is less than -10.

For the sequence “AATGTTGTTGATGCAACCATAAAGTTCGCGGGCCGCCGGCGGGCGCCGACTACCAGGCCAACACCCCACCAACGCGCGGTCGCGAGACACCCCACCAACGCCTGGTCGCGGGGGTGTCCGATCTGATTTCAGCAAAACTACTGCAGTAAGAA”, in data set [1], the “relative integration efficiency (log2)” value is less than -10. On the same count and under the same terms, then “AATGTTGTTGATGCAACCATAAATGTCGCGGGCCGCCGGCGGGCGCCGACTACCAGGCCAACACCCCACCAACGCGCGGTCGCGAGACACCCCACCAACGCCTGGTCGCGGGGGTGTCCGATCTGATTTCAGCAAAACTACTGCAGTAAGAA”, with less than -10; and “AATGTTGTTGATGCAACCATACCTGTATATTTAATAATTATTTATAATCAGCAACTTAACCACAAAACAACCATAGCGGTATATCTCACAAAACAACCATACTGGTATATTTTTGTGAATCGAGTATTTCAGCAAAACTACTGCAGTAAGAA”, with less than -10; and “AATGTTGTTGATGCACAACGCCCTGTCGCGGGCCGCCGGCGGGCGCCGACTACCAGGCCAACACCCCACCAACGCGCGGTCGCGAGACACCCCACCAACGCCTGGTCGCGGGGGTGTCCGATCTGATTTCAGCAAAACTACTGCAGTAAGAA”, with less than -10. As to “AATGTTGTTGATGCCCAACGCCCTGTCGCGGGCCGCCGGCGGGCGCCGACTACCAGGCCAACACCCCACCAACGCGCGGTCGCGAGACACCCCACCAACGCCTGGTCGCGGGGGTGTCCGATCTGATTTCAGCAAAACTACTGCAGTAAGAA”, the “relative integration efficiency (log2)” value in data set [1] was less than -10. With “AATGTTGTTGATGGTTGGTATTTCACTATAAATATAATTATTTATAATCAGCAACTTAACCACAAAACAACCATATATTGATATCTCACAAAACAACCATAAGTTGATATTTTTGTGAATCGAGTATTTCAGCAAAACTACTGCAGTAAGAA”, the “relative integration efficiency (log2)” value in data set [2] was -6.55 ± 1.7. For “AATGTTGTTGATGGTTGGTATTTCACTATAAATATAATTATTTATAATCAGCAACTTAACCACAAAACAACCATATATTGATATCTCACAAAAGTTGGTATTCAACTATAAAATGTGAATCGAGTATTTCAGCAAAACTACTGCAGTAAGAA”, the “relative integration efficiency (log2)” value in data set [2] was -8.45 ± 0.29. Same read-out and setting: then “AATGTTGTTGATGGTTGGTATTTCACTATAAATATAATTATTTATAATCAGCAACTTAACCACAAAAGTTGGTATATAACTATAGAGACAAAACAACCATAAGTTGATATTTTTGTGAATCGAGTATTTCAGCAAAACTACTGCAGTAAGAA”, with -8.28 ± 1.3. “AATGTTGTTGATGTAATTATCATTTTATGGTTGATAATTATTTATAATCAGCAACTTAACCACAAAACAACCATAAAATGATAATTAACAAAACAACCATAAAATGATAATTATGTGAATCGAGTATTTCAGCAAAACTACTGCAGTAAGAA”: the “relative integration efficiency (log2)” value in data set [1] was less than -10. On the same count and under the same terms, then “AATGTTGTTGATGTAATTATCATTTTATGGTTGATAATTATTTATAATCAGCAACTTAACCACAAAATAATTATCATTTTATGGTTGACAAAACAACCATAAAATGATAATTATGTGAATCGAGTATTTCAGCAAAACTACTGCAGTAAGAA”, with less than -10.

On to “AATGTTGTTGATGTGTTGACAACCATAAAGTGATATTTAATAATTATTTATAATCAGCAACTTAACCACAAAACAACCATATATTGATATCTCACAAAACAACCATAAGTTGATATTTTTGTGAATCGAGTATTTCAGCAAAACTACTGCAG”, for which the “relative integration efficiency (log2)” value in data set [2] was -2.23 ± 0.63. Still for that read-out and setting: with “AATGTTGTTGATGTGTTGATCAACCATAAAGTGATATTTAATAATTATTTATAATCAGCAACTTAACCACAAAACAACCATATATTGATATCTCACAAAACAACCATAAGTTGATATTTTTGTGAATCGAGTATTTCAGCAAAACTACTGCA” the figure was -4.39 ± 0.52.

(Values after the supplement of paper PMC10201428.)
